Laboratory results: US20180282410A1 (Hoffmann-La Roche, published 2018)
Read-outs that look alike come from different tables or passages of the source.

T1: mouse Robo 4 on MS-1 mouse endothelial cells (mouse, UniProt Q8C310 28-1012)
T1 sequence: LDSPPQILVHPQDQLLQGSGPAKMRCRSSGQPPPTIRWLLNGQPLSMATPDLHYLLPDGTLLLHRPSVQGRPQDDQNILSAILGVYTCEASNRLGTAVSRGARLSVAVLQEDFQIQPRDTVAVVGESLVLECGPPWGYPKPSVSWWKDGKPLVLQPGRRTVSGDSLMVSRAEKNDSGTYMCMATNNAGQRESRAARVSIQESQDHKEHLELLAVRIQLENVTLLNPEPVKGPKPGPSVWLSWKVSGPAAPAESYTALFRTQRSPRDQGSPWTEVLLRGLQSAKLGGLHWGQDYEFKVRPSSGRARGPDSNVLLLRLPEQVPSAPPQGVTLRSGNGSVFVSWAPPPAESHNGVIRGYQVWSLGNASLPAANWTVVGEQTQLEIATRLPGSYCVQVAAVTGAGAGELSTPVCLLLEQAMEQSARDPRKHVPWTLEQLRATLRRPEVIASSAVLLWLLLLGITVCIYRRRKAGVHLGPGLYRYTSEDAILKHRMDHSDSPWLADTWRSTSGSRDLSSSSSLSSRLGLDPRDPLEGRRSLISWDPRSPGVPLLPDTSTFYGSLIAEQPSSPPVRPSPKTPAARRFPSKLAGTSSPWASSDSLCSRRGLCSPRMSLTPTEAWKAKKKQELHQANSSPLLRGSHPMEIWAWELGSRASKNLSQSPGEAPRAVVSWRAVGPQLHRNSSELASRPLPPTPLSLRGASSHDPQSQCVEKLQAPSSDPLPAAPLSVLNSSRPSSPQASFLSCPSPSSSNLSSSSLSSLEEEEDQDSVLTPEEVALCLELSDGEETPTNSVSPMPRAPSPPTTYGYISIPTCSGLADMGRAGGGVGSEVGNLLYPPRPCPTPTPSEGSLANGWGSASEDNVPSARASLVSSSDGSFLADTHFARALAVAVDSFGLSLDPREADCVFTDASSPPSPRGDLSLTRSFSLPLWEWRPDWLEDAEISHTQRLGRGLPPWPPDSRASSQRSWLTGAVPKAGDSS

T2: full-length human Robo 4 (on cells) (human, UniProt Q8WZ75 28-1007)
T2 sequence: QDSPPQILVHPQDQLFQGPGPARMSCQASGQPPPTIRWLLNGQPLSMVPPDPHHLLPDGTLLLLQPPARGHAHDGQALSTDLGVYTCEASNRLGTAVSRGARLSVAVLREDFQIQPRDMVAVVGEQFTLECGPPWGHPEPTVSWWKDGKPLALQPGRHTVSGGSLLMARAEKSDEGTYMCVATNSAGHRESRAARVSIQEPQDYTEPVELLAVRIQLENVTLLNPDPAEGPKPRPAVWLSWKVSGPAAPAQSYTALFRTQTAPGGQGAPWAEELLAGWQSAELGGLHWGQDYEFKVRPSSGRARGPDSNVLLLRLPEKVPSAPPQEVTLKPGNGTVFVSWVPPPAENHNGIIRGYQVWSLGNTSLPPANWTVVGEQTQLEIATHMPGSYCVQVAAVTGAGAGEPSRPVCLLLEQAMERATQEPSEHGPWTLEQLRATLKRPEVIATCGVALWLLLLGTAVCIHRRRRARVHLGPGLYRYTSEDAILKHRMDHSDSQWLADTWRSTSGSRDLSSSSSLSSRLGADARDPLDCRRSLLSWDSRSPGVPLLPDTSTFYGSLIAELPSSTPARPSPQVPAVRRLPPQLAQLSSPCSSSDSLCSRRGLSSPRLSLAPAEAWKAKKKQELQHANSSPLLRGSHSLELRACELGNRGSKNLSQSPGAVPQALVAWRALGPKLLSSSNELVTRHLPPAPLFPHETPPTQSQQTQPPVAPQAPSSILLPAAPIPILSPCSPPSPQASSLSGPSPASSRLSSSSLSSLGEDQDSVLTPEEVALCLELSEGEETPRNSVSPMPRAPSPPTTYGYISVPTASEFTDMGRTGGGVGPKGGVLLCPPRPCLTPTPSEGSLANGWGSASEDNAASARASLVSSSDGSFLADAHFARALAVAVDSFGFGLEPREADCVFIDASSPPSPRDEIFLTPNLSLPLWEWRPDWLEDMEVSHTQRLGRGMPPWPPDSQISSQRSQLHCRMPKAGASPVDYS

B1: 01E06 hybridoma clone (Armenian hamster IgG, supernatant) (antibody, V domains shown)
VH: EVQLVESGGGLSQPGNSLKLSCEASGFTFRNYDMSWVRQAPGKGLEWVAYISSGGGPIYYVDAVKGRFTISRDNAKNLLFLQMNNLRSEDTAVYYCARDLADIGVFDYWGQGTMVTVSS
VL: DFKMTQSPDILSPSLGESVTITCQSSQNIYSNLAWYQQKPGEHPKLLIYTASILADGIPSRFTGSGSGTQFSLKISSLQPDDVANYYCQQYVYYRTFGPGTKLEIK
B2: Molecule J, 1+1 Fab-CrossFab (VH/VL exchange in CD3 binder, CD3 binder V9, Robo 4 binder 01F05) (bispecific antibody)
chain 1: QVQLKQSGAELVKPGASVKISCKTSVYTFTYGYMHWVEQKPGQGLEWIGRIDPDSGNSMYNQKFQGRATLTRDKSSSTVYMELRSLTSEDSAVYYCARSMRYSGYRDYALDLWGQGTQVTVSSASTKGPSVFPLAPSSKSTSGGTAALGCLVKDYFPEPVTVSWNSGALTSGVHTFPAVLQSSGLYSLSSVVTVPSSSLGTQTYICNVNHKPSNTKVDKKVEPKSCDGGGGSGGGGSDIQMTQSPSSLSASVGDRVTITCRASQDIRNYLNWYQQKPGKAPKLLIYYTSRLESGVPSRFSGSGSGTDYTLTISSLQPEDFATYYCQQGNTLPWTFGQGTKVEIKSSASTKGPSVFPLAPSSKSTSGGTAALGCLVKDYFPEPVTVSWNSGALTSGVHTFPAVLQSSGLYSLSSVVTVPSSSLGTQTYICNVNHKPSNTKVDKKVEPKSC
chain 2: QLVLTQSPSASASLGASVKLTCTLSSQHSSYGITWLQQHPDKAPKYVMYLKSDGSHTKGADIPDRFSGSSSGVHRYLSISNVQPEDEAIYFCVTYDSTHVFGSGTQLTVLGQPKAAPSVTLFPPSSEELQANKATLVCLISDFYPGAVTVAWKADSSPVKAGVETTTPSKQSNNKYAASSYLSLTPEQWKSHRSYSCQVTHEGSTVEKTVAPTECS
chain 3: EVQLVESGGGLVQPGGSLRLSCAASGYSFTGYTMNWVRQAPGKGLEWVALINPYKGVSTYNQKFKDRFTISVDKSKNTAYLQMNSLRAEDTAVYYCARSGYYGDSDWYFDVWGQGTLVTVSSASVAAPSVFIFPPSDEQLKSGTASVVCLLNNFYPREAKVQWKVDNALQSGNSQESVTEQDSKDSTYSLSSTLTLSKADYEKHKVYACEVTHQGLSSPVTKSFNRGEC
B3: Molecule B, 1+1 CrossFab-IgG (VH/VL exchange in CD3 binder, CD3 binder V9, Robo 4 binder 01F05) (bispecific antibody)
chain 1: not shown
chain 2: QLVLTQSPSASASLGASVKLTCTLSSQHSSYGITWLQQHPDKAPKYVMYLKSDGSHTKGADIPDRFSGSSSGVHRYLSISNVQPEDEAIYFCVTYDSTHVFGSGTQLTVLGQPKAAPSVTLFPPSSEELQANKATLVCLISDFYPGAVTVAWKADSSPVKAGVETTTPSKQSNNKYAASSYLSLTPEQWKSHRSYSCQVTHEGSTVEKTVAPTECS
chain 3: EVQLVESGGGLVQPGGSLRLSCAASGYSFTGYTMNWVRQAPGKGLEWVALINPYKGVSTYNQKFKDRFTISVDKSKNTAYLQMNSLRAEDTAVYYCARSGYYGDSDWYFDVWGQGTLVTVSSASVAAPSVFIFPPSDEQLKSGTASVVCLLNNFYPREAKVQWKVDNALQSGNSQESVTEQDSKDSTYSLSSTLTLSKADYEKHKVYACEVTHQGLSSPVTKSFNRGEC
chain 4: DKTHTCPPCPAPEAAGGPSVFLFPPKPKDTLMISRTPEVTCVVVDVSHEDPEVKFNWYVDGVEVHNAKTKPREEQYNSTYRVVSVLTVLHQDWLNGKEYKCKVSNKALGAPIEKTISKAKGQPREPQVCTLPPSRDELTKNQVSLSCAVKGFYPSDIAVEWESNGQPENNYKTTPPVLDSDGSFFLVSKLTVDKSRWQQGNVFSCSVMHEALHNHYTQKSLSLSPGK
B4: Molecule K, 1+1 Fab-CrossFab (VH/VL exchange in CD3 binder, CD3 binder 2C11, Robo 4 binder 01F05) (bispecific antibody)
chain 1: DIQMTQSPSSLPASLGDRVTINCQASQDISNYLNWYQQKPGKAPKLLIYYTNKLADGVPSRFSGSGSGRDSSFTISSLESEDIGSYYCQQYYNYPWTFGPGTKLEIKSSASTKGPSVFPLAPSSKSTSGGTAALGCLVKDYFPEPVTVSWNSGALTSGVHTFPAVLQSSGLYSLSSVVTVPSSSLGTQTYICNVNHKPSNTKVDKKVEPKSCGGGGSGGGGSQVQLKQSGAELVKPGASVKISCKTSVYTFTYGYMHWVEQKPGQGLEWIGRIDPDSGNSMYNQKFQGRATLTRDKSSSTVYMELRSLTSEDSAVYYCARSMRYSGYRDYALDLWGQGTQVTVSSASTKGPSVFPLAPSSKSTSGGTAALGCLVKDYFPEPVTVSWNSGALTSGVHTFPAVLQSSGLYSLSSVVTVPSSSLGTQTYICNVNHKPSNTKVDKKVEPKSCD
chain 2: QLVLTQSPSASASLGASVKLTCTLSSQHSSYGITWLQQHPDKAPKYVMYLKSDGSHTKGADIPDRFSGSSSGVHRYLSISNVQPEDEAIYFCVTYDSTHVFGSGTQLTVLGQPKAAPSVTLFPPSSEELQANKATLVCLISDFYPGAVTVAWKADSSPVKAGVETTTPSKQSNNKYAASSYLSLTPEQWKSHRSYSCQVTHEGSTVEKTVAPTECS
chain 3: EVQLVESGGGLVQPGKSLKLSCEASGFTFSGYGMHWVRQAPGRGLESVAYITSSSINIKYADAVKGRFTVSRDNAKNLLFLQMNILKSEDTAMYYCARFDWDKNYWGQGTMVTVSSASVAAPSVFIFPPSDEQLKSGTASVVCLLNNFYPREAKVQWKVDNALQSGNSQESVTEQDSKDSTYSLSSTLTLSKADYEKHKVYACEVTHQGLSSPVTKSFNRGEC
B5: 01F05 hybridoma clone (Armenian hamster IgG, supernatant) (antibody, V domains shown)
VH: QVQLKQSGAELVKPGASVKISCKTSVYTFTYGYMHWVEQKPGQGLEWIGRIDPDSGNSMYNQKFQGRATLTRDKSSSTVYMELRSLTSEDSAVYYCARSMRYSGYRDYALDLWGQGTQVTVSS
VL: QLVLTQSPSASASLGASVKLTCTLSSQHSSYGITWLQQHPDKAPKYVMYLKSDGSHTKGADIPDRFSGSSSGVHRYLSISNVQPEDEAIYFCVTYDSTHVFGSGTQLTVLG
B6: 01F09 hybridoma clone (Armenian hamster IgG, supernatant) (antibody, V domains shown)
VH: QIQLQESGPGLVKPSQSLSLTCSVTGYSISSGSLWTWIRQFPGNNLEWMGYISYAGGIDYNPSLTSRISITRDTSRNQFFLQLESVTTQDTATYYCATPGGYPFHFDYWGQGTMVTVSS
VL: QPVLTQSPSASASLGASVKLTCTLNSQFSTYNIGWYQQHRDKPPKYVMFVKGDGGHSKADGIPDRFSGSSSGADRYLTISNIQAEDEAIYFCGADYNNAGQYGCVFGSGTHFTVLG

What was measured:
[1] = target: T3, recombinant human Robo1 antigen (human, UniProt Q9Y6N7 59-886, limits assumed); assay: ELISA, hybridoma supernatant
T3 construct: limits of the construct and tags are not described in the text; also called human Robol

[2] = target: T1, mouse Robo 4 on MS-1 mouse endothelial …; assay: cell-based or functional assay
[3] = target: T2, full-length human Robo 4 (on cells); assay: cell-based or functional assay
[4] = target: T1, mouse Robo 4 on MS-1 mouse endothelial …; assay: cell-based or functional assay; remark: listed apart in the source
[5] = target: T2, full-length human Robo 4 (on cells); assay: cell-based or functional assay; remark: listed apart in the source
[6] = target: T2, full-length human Robo 4 (on cells); assay: cell-based or functional assay; remark: listed apart in the source
[7] = target: T1, mouse Robo 4 on MS-1 mouse endothelial …; assay: cell-based or functional assay; remark: listed apart in the source

T3 sequence (Q9Y6N7 other isoform, or with tags, fused parts or gaps limits assumed): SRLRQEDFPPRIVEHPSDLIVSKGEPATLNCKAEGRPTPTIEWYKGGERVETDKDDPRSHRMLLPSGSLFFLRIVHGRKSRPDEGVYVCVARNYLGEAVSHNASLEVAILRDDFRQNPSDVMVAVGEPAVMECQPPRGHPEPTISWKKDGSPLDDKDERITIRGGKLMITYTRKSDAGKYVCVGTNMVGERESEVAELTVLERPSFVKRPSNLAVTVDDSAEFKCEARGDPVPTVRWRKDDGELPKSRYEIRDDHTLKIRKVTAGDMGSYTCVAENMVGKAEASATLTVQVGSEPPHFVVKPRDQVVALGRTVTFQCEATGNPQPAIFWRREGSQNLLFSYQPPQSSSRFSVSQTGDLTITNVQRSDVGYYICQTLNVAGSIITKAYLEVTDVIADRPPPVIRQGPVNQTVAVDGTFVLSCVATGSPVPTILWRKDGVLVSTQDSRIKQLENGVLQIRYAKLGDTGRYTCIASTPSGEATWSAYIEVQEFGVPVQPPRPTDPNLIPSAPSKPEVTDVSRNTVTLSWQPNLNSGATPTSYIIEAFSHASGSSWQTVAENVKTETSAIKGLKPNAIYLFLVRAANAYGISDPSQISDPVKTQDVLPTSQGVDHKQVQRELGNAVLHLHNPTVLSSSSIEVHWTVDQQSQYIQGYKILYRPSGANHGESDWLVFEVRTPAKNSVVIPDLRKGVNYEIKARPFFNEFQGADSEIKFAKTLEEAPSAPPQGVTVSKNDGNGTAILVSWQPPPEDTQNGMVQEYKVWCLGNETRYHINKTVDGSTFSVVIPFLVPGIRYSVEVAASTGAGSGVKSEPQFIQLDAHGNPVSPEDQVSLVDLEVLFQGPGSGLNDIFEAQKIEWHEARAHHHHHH

Row | Binder | binding result [1] | EC50 of T-cell mediated killing of HUVECs (LDH release, human pan T cells, E:T 5:1, 22 h) [3] | EC50 of T-cell mediated killing of MS-1 cells (LDH release, human pan T cells, E:T 5:1, 17 h) [4] | EC50 of T-cell mediated killing of HUVECs (LDH release, human PBMCs, E:T 10:1), 24 h [5] | EC50 of T-cell mediated killing of HUVECs (LDH release, human PBMCs, E:T 10:1), 48 h [5] | also measured
1 | B1 | no binding |  |  |  |  | 
2 | B2 |  | 0.026 nM | 0.004 nM | 0.204 nM | 0.127 nM | EC50 of T-cell mediated killing of MS-1 cells (LDH release, human PBMCs, E:T 10:1), 24 h [2]: 0.294 nM; EC50 of T-cell mediated killing of MS-1 cells (LDH release, human PBMCs, E:T 10:1), 48 h [2]: 0.106 nM; EC50 of T-cell mediated killing of HUVECs (LDH release, human PBMCs, E:T 10:1), 24 h [6]: 0.105 nM; EC50 of T-cell mediated killing of HUVECs (LDH release, human PBMCs, E:T 10:1), 48 h [6]: 0.0472 nM
3 | B3 |  | 0.164 nM | 0.115 nM | 1.61 nM | 1.55 nM | 
4 | B4 |  |  |  |  |  | EC50 of T cell mediated killing of MS-1 cells by murine splenocytes (LDH release, E:T 10:1, 48 and 72 h) [7]: 1.3 nM
5 | B5 | no binding |  |  |  |  | 
6 | B6 | no binding |  |  |  |  | 
